Results as given in the DeepSol protein solubility set.

Assay: soluble on expression in E. coli; label from the status in PepcDB or PDB records

| Sequence | soluble on expression in E. coli |
| --- | --- |
| MDKEVTNIVLKRHDSIVKGAQDDREYRGLELTNGIRVLLVSDPTTDKSAAALDVKVGHLMDPWELPGLAHFCEHMLFLGTAKYPTENEYSKFLTDNAGHRNAVTASDHTNYHFDVKPDQLRGALDRFVQFFLSPQFTESATEREVCAVDSEHSNNLNNDLWRLSQVDRSLSKPGHDYAKFGTGNKKTLLEEARKKGVEPRDALLQFYKKWYSSNIMTCCIIGKESLDVLQSHLKTLEFDTIENKKVERKVWNENPYGPEQLGKRIDRKFFAHLIRHKGPGSLLVELKRLGWVNSLKSDSNTIAAGFGILNVTMDLSTGGLENVDEIIQLMLNYIGMLKSFGPQQWIHDELADLSDVKFRFKDKEQPMKMAINIAASLQYIPIEHILSSRYLLTKYEPERIKELLSTLTPSNMLVRVVSQKFKEQEGNTNEPVYGTEMKVTDISPEKMKKYENALKTSHHALHLPEKNEYIATNFGQKPRESVKNEHPKLISDDGWSRVWFKQDDEYNMPKQETKFALTTPIVSQNPRISLISSLWLWCFCDILSEETYNAALAGLGCQFELSPFGVQKQSTDGREAERHASLTLHVYGYDEKQPLFVKHLTSCMINFKIDRTRFEVLFESLKRTLTNHAFSQPYLLTQHYNQLLIVDKVWSKEQLLAVCDSVTLENVQGFAREMLQAFHMELFVHGNSTEKEAIQLSKELMDILKSAAPNSRPLYRNEHNPRREFQLNNGDEYIYRHLQKTHDAGCVEVTYQIGVQNKYDNAVVGLIDQLIKEPVFDTLRTNEALGYIVWTGCRFNCGAVALNIFVQGPKSVDYVLERIEVFLESVRKEIIEMPQDEFEKKVAGMIARLEEKPKTLSNRFKRFWYQIECRQYDFARREKEVKVLKSIGKDDVIALFDKKIRKNAVERRKLVVLVHGKIDDQETLNRIIKKNVESGKKEKEILNLDQLRQSLPVYDLPNAAIDLKPIGVDPLEQKESATVQ | not soluble |
| MNMTIFIVFVICLSCVSLSLGTETCPPLTTIKPPDDIQKSLFYPSNWNDDLPTPNFAAGQKCSFKVIGPVVPQIRTVHAKSPPLALNAMSSTNPIVVKSDTHVSFLPIPQNYNYLDPILRSVQVYDGPTIDSTHLGTLYQAIASNNSLVSSGKYLTFYSLSWYYSVRNIVILQDYSDIQNYASYQAFTCHNSCGVSLDASKGTAAVLLFNSLSFVNQLSMSDNNSTLSVYTNSISDDNKLSDYSYSNSQTNIPQKFVGNYTIFVLDKGQANLSLKTYTPNNAWWSYVFYGQRGFFASPNFGTSDSDQNLCDAVSINGKHPAKITYTVDRSAIVGPAVLTVSIGGNITIYDVTNLPGPDPISAIGMSIAVNYESNGVISTGAFVSFEFQKSATSNGILFTIVLTICMAIFF | not soluble |
| MGSDKIHHHHHHMLTLLSYHQKVLDHFKHQTKTWDFFTASQNKDEQLNQYKTELLKNTYKFDPEKDTSIYEKVAKSKQVLGLDINVYVYQAQYSDELNASVGFVNNEAHIVFSGQIIQLLDDDELLTVIAHELSHIKLYTMQGGDPEVAARIITAISNNYDSESSYMETARLFRLYTEIFCDRGAYEVQGSTGPVITSLVKTATGLKQVNAESYIKQAEEIFSADQQLKAASISHPENFIRARAIHLWHEKKEAAEEEIIRMIEGVTDIDALDIFKQKELAACTRQFLQLYLKPNWFRSTLVVSQAKQYFVDFSWDDKIILEETFITRMEKAHESVKNYFSYVLLDFALLDSTLEEIPFGWAFQFAEDIDIKETFDAVVKKELNLSDKKLQQHKQKTLSAFYNVKEGDGEQIYEG | not soluble |
| MAHHHHHHMEKLREHSERPVPDMLVLPLTASLPQEVQSRVFEPTPPRCRKVVLATNVAETSITITNLYFVVDSGFCKQNVFDPKTGMEQLKIVPISQAQAQQRAGRAGRIGPGKCFRMYTELQFQMDMEPATVPDIQRSNLFHVVLQLKAMGINDLFALDLMDPPPQETLVSALQKLRYLEALDDDGLLTPLGGRMAQLPIDPSQSKTLLTAVDMGCCEPVLTIVSMLAVQKRGVFYRPRDQHEASDAAKRQFHQPEGDQITLLAVYDAWVANGLSEEWCKRNFLKHRILMEARDTREQLSDMLHKRHASIPHHNDDALTEVRRAITAGYFFNVAKRITDVAYATLAERREVYVHPSSCLRDAPPKYVLYNELQLTNREYMRELLVIEPQWLVELAPAFYSRPRKGKLTKEQRAERLNPILRAWENGSSWRISKLRRRK | not soluble |
| MVHYKLSYFPIRFAGEIPRQILAYAGQKFEDHRIPQADWPALKSTMPFGTLPVLYQDGKPLGQSHAISRFLARQFGINGRCPWEEAQVNAIADQFKDYLNDIRSYNLVKMGFAQGDADALYKDTFLPNFKKNYQFFTNFLKASGSGFLIGDSVTWVDLLIAQHTSDLLSDSGSVFAASQSLLDEFPELKAHQKKIHSIPNIKKWVETRPVTPF | not soluble |
| MSLRPGIKALAEATGYSIATVSKALNGSPMVAPATKALIHRAAADIGYRANARGMALRTGRTCQAAVLMPVTAARDYEWDGVEYTQILSGISQALEGSDYRMSVHVVRNVEDGCEVARRIIDEGLADGLIFSGIRADDPRIDLLDESRFPFVSLGRCRKPLDYAHVDIDNEWAAHAATARLIAGGHRRIALVNPLRHLSYAEDRVDGFLRAFREANLSPSDDLIAEGDLSTHFGRESALGLLDAARPPTAFVCSNESTTLGVLSGLGSRGRRIGVDVDVVAYDDINVSAYFTPPITTFYQPIEVLGRTLGEFLLRRMAGEDARSLKQVFRPRLIERQPDSLGGREGHHHHHH | soluble |
| MSKLFSEYKLKDVTLKNRIVMSPMCMYSVENKDGIATDFHFAHYVSRAAGGTGLVILEATAVQEVGRISEFDLGLWNDEQVPALKKLVGGLHYHGAKAGIQLAHAGRKAVLPGEIVAPSAIAFDEKSDKPVELTKEAIKEVVADFKRAAYRAKEAGFDVIEIHAAHGYLIHQFLSPITNRREDNYGGPAGNRYKILSDIIKAVKEVWDGPIIVRVSATDYAHGGLQLEDHIPFAKWMKADGVELIDVSTGGLVNVAPPVFPGYQVPFADEIRRGAGIATGALGLITRGEQAEEILCNERADLIIVGRELLRNPYFAKDAAKQLGETIEAPKQYSRAWK | not soluble |
| MQDPYVKEAENLKKYFNAGHSDVADNGTLFLGILKNWKEESDRKIMQSQIVSFYFKLFKNFKDDQSIQKSVETIKEDMNVKFFNSNKKKRDDFEKLTNYSVTDLNVQRKAIDELIQVMAEFSTEEQQEGPYVKEAENLKKYFNAGHSDVADNGTLFLGILKNWKEESDRKIMQSQIVSFYFKLFKNFKDDQSIQKSVETIKEDMNVKFFNSNKKKRDDFEKLTNYSVTDLNVQRKAIHELIQVMAELSPAAKTGKRKRSQMLFRG | soluble |
| GPGSMSCEVTMVGRDRDYLHDVQYGSRTFRLADRRIRAPSGLTVRAVDAEPIKDDVGVDAVLSCVPATCLENDGAHTPPMVRCAQNHADAPMLLFTRGFTREGLTPLEQLGRVSQDLPSKLVVVSGPLFAREWAVTSAAACDGGDANRNSGVTLSFALGGKADVELSRSLQSLTERLWRRESVTWLDGPLAAEILSLVNGCVPLCSMGAGLVSSEYPGSVSATMSYLQHATSATEQLVNGVLGLPLGSPLPSCAVATIAMACTNHAAREFVFGRRLDYHFRHRDAIRAVFPAGSHEALDSTVSGLHMLLRRHAMSSPFYEVLMDTFLTLMRASVAGRELVRLGHYEYRHKLRDEDTVLLRHTEVVDEAMLSGDHQRFDDARRALQMAFGDSSCGAPTMPPL | not soluble |
| MEHKEVVLLLLLFLKSGQGEPLDDYVNTQGPSLFSVTKKQLGAGSREECAAKCEEDKEFTCRAFQYHSKEQQCVIMAENRKSSIIIRMRDAVLFEK | not soluble |
| REGVFRAERQRKAGELIISREPLTGLDDAARSQALLALVRRKGLELLPWTPELRQWQARVALLRSLDIDKSATSEWPDLSDAQLLATLENWLMPYLGKVT | not soluble |
| MGHHHHHHSHSPGSASGGSREYKVVMLGAGGVGKSAMTMQFISHQFPDYHDPTIEDAYKTQVRIDNEPAYLDILDTAGQAEFTAMREQYMRGGEGFIICYSVTDRQSFQEAAKFKELIFQVRHTYEIPLVLVGNKIDLEQFRQVSTEEGLSLAQEYNCGFFETSAALRFCIDDAFHGLVREIRKKESMP | soluble |
